Square brackets hold non-standard residues; d marks the D form. Ends that are not written are not given here. * marks the point of attachment. pY = N[C@@H](Cc1ccc(OP(=O)(O)O)cc1)C(=O)O; Dansyl = CN(C)c1cccc2c(S(=O)(=O)*)cccc12
Key:
Conditions in all cases: both partners purified
[1] = target: T1, SH2 domain of Crkl protein (residues 1-111), H91A variant (UniProt P46109 1-111, H91A); assay: stopped-flow fluorescence kinetics (FRET); dansyl-Pax112-123 constant at 2 μM mixed with Crkl-SH2 2 to 10 μM (pseudo-first-order, kon); koff by displacement of the preincubated 2 µM complex with excess non-dansylated Pax112-123 (30 μM); 283 K; 50 mM TrisHCl pH 9.0, 0.5 M NaCl
T1 construct: Crkl adaptor protein, SH2 domain, residues 1-111, His91 replaced by alanine; Site-directed mutant of m1 (QuikChange); source: E. coli BL21 (DE3), purified (HisTrap nickel column, desalting); not shown: His tag, N-terminal, kept

[2] = target: T2, SH2 domain of Crkl protein (residues 1-111), H80A variant (UniProt P46109 1-111, H80A); assay: as above
T2 construct: Crkl adaptor protein, SH2 domain, residues 1-111, His80 replaced by alanine; Site-directed mutant of m1 (QuikChange); source: E. coli BL21 (DE3), purified (HisTrap nickel column, desalting); not shown: His tag, N-terminal, kept

[3] = target: T3, SH2 domain of Crkl protein (residues 1-111), H33A variant (UniProt P46109 1-111, H33A); assay: as above
T3 construct: Crkl adaptor protein, SH2 domain, residues 1-111, His33 replaced by alanine; Site-directed mutant of m1 (QuikChange); source: E. coli BL21 (DE3), purified (HisTrap nickel column, desalting); not shown: His tag, N-terminal, kept

[4] = target: T4, SH2 domain of Crkl protein (residues 1-111), wild type (UniProt P46109 1-111); assay: stopped-flow fluorescence kinetics (FRET); dansyl-Pax112-123 constant at 2 μM mixed with Crkl-SH2 2 to 10 μM (pseudo-first-order, kon); koff by displacement of the preincubated 2 µM complex with excess non-dansylated Pax112-123 (30 μM); 283 K; 50 mM sodium-HEPES pH 7.5, 0.5 M NaCl
T4 construct: Crkl adaptor protein, SH2 domain, residues 1-111; Subcloned in pET28b+; all experiments were done on the N-terminally His-tagged protein; also called Crkl-SH2; Crkl SH2 domain; source: E. coli BL21 (DE3), purified (HisTrap nickel column, desalting); not shown: His tag, N-terminal, kept

[5] = target: T1, SH2 domain of Crkl protein (residues …); assay: as above
[6] = target: T2, SH2 domain of Crkl protein (residues …); assay: as above
[7] = target: T3, SH2 domain of Crkl protein (residues …); assay: as above
[8] = target: T4, SH2 domain of Crkl protein (residues …); assay: stopped-flow fluorescence kinetics (FRET); dansyl-Pax112-123 constant at 2 μM mixed with Crkl-SH2 2 to 10 μM (pseudo-first-order, kon); koff by displacement of the preincubated 2 µM complex with excess non-dansylated Pax112-123 (30 μM); 283 K; 50 mM sodium-acetate pH 5.0, 0.5 M NaCl
[9] = target: T2, SH2 domain of Crkl protein (residues …); assay: as above
[10] = target: T3, SH2 domain of Crkl protein (residues …); assay: as above

T1 sequence (P46109 1-111 H91A): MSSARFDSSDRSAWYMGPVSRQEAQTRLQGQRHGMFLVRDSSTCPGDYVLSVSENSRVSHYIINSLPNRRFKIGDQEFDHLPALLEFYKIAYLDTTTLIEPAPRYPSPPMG
T3 sequence (P46109 1-111 H33A): as the sequence (P46109 1-111 H91A) above, with H33A, A91H counted along it
T2 sequence (P46109 1-111 H80A): as the sequence (P46109 1-111 H91A) above, with H80A, A91H counted along it
T4 sequence (P46109 1-111): as the sequence (P46109 1-111 H91A) above, with A91H counted along it

B1: dansylated Pax_(112–123) peptide (Dans-GEEEHV-pY-SFPNK) (peptide)
peptide: Dansyl-GEEEHV[pY]SFPNK
notes: The dansyl group is the FRET acceptor of Trp14 of the SH2 domain; source: synthetic peptide, bought: GenScript
Work on B1 yielded a Kd [1] of 2900 ± 100 nM, a koff [1] of 36.4 ± 0.5 s⁻¹ and a kon [1] of 1.27e+07 ± 500000 M⁻¹ s⁻¹. The Kd [2] was 2800 ± 300 nM, the koff [2] was 34 ± 2.3 s⁻¹ and the kon [2] was 1.2e+07 ± 900000 M⁻¹ s⁻¹. It also gave a Kd [3] of 4200 ± 500 nM, a koff [3] of 44.7 ± 4 s⁻¹ and a kon [3] of 1.06e+07 ± 1e+06 M⁻¹ s⁻¹. It also gave a Kd [4] of 2800 ± 400 nM, a koff [4] of 28.6 ± 0.5 s⁻¹ and a kon [4] of 1.04e+07 ± 1.4e+06 M⁻¹ s⁻¹. The Kd [5] was 2600 ± 100 nM, the koff [5] was 25.9 ± 0.3 s⁻¹ and the kon [5] was 1e+07 ± 500000 M⁻¹ s⁻¹. It also gave a Kd [6] of 2000 ± 200 nM, a koff [6] of 27.8 ± 2.3 s⁻¹ and a kon [6] of 1.36e+07 ± 1.1e+06 M⁻¹ s⁻¹. It also gave a Kd [7] of 2300 ± 500 nM, a koff [7] of 24.6 ± 3.2 s⁻¹ and a kon [7] of 1.08e+07 ± 1.9e+06 M⁻¹ s⁻¹. The Kd [8] was 9500 ± 1700 nM, the koff [8] was 49.1 ± 1.7 s⁻¹ and the kon [8] was 5.2e+06 ± 900000 M⁻¹ s⁻¹. It also gave a Kd [9] of 11500 ± 1200 nM, a koff [9] of 52.7 ± 3.2 s⁻¹ and a kon [9] of 4.6e+06 ± 400000 M⁻¹ s⁻¹. For the same binder, the Kd [10] was 7600 ± 700 nM, the koff [10] was 33.2 ± 1.4 s⁻¹ and the kon [10] was 4.4e+06 ± 300000 M⁻¹ s⁻¹.
